Drawing on ChEMBL document CHEMBL2074277, “Expression and localization of organic cation/carnitine transporter OCTN2 in Caco-2 cells” (Am J Physiol Gastrointest Liver Physiol, 2003), this text covers Km for one protein.

Substrate in the data set: C[N+](C)(C)CC(O)CC(=O)[O-]
The data set can be described thus: TP_TRANSPORTER: uptake in Caco-2 cells. In kind it is functional, cell-based.

B1: Organic cation/carnitine transporter 2 (Homo sapiens) (protein)
chain: MRDYDEVTAFLGEWGPFQRLIFFLLSASIIPNGFTGLSSVFLIATPEHRCRVPDAANLSSAWRNHTVPLRLRDGREVPHSCRRYRLATIANFSALGLEPGRDVDLGQLEQESCLDGWEFSQDVYLSTIVTEWNLVCEDDWKAPLTISLFFVGVLLGSFISGQLSDRFGRKNVLFVTMGMQTGFSFLQIFSKNFEMFVVLFVLVGMGQISNYVAAFVLGTEILGKSVRIIFSTLGVCIFYAFGYMVLPLFAYFIRDWRMLLVALTMPGVLCVALWWFIPESPRWLISQGRFEEAEVIIRKAAKANGIVVPSTIFDPSELQDLSSKKQQSHNILDLLRTWNIRMVTIMSIMLWMTISVGYFGLSLDTPNLHGDIFVNCFLSAMVEVPAYVLAWLLLQYLPRRYSMATALFLGGSVLLFMQLVPPDLYYLATVLVMVGKFGVTAAFSMVYVYTAELYPTVVRNMGVGVSSTASRLGSILSPYFVYLGAYDRFLPYILMGSLTILTAILTLFLPESFGTPLPDTIDQMLRVKGMKHRKTPSHTRMLKDGQERPTILKSTAF
As a reminder, the Km is the substrate concentration at which the rate is half of its maximum. As for B1, the Km worked out at 14.1 µM.
